For 1 molecule, Kd results are on record in publication PMC11913275, “Targeting prostate cancer by new bispecific monocyte engager directed to prostate-specific membrane antigen” (PLOS One, 2025).

The test has as its target T1, Prostate-specific membrane antigen (Homo sapiens, UniProt Q04609).
T1 construct: also called PSMA; glutamate carboxypeptidase II; source: on PSMA-positive PC3-PIP cells
In words: flow cytometry on cells; PSMA-positive PC3-PIP cells (PC3 as negative control) mixed with 5-fold dilution series of the construct, 20 μL, 15 min at 4°C; 5D3-CP33 detected by anti-Strep tag antibody and Alexa Fluor 647 secondary, ch5D3 by anti-human Alexa Fluor 647 secondary; KD by non-linear regression. The note with it: one partner purified.

T1 sequence (Q04609 whole entry): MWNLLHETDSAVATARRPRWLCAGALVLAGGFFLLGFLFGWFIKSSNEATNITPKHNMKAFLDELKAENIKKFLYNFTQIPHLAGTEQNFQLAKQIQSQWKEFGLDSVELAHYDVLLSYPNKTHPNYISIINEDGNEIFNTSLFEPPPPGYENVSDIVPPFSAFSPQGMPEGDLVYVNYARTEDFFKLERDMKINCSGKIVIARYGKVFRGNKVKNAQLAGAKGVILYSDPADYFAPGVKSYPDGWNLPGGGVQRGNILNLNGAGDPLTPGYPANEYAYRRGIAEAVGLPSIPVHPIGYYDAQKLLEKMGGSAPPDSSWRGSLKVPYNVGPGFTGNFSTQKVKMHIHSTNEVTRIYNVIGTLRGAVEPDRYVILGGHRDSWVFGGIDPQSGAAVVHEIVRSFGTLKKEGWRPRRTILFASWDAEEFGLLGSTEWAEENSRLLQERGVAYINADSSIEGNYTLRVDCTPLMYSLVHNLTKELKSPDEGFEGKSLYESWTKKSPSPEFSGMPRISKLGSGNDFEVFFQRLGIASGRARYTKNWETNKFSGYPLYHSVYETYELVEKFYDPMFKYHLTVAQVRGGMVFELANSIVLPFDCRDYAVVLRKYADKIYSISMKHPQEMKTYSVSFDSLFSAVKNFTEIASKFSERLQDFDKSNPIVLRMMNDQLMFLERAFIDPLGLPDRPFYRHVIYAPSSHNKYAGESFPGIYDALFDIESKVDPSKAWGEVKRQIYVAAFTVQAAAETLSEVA

B1: 5D3-CP33 bispecific monocyte engager (5D3-scFv HL fused to the N-terminus of CP33) (bispecific antibody, V domains shown)
VH: EVQLQQSGPELVKPGASVKISCKTSGYAFNTSWMNWVKQRPGQGLEWIGRIYPGDGDTNYNGKFKGKATLTADKSSSTAHMHLSSLTSVDSAVYFCARGEWYLYYFDYWGQGTTLTVSS
VL: DIQMTQTTSSLSASLGDRVTISCSASQGINNFLTWYQQKPDGTLKLLIYYTSSLHSGVPSRFSGSGSGTDYSLTIRNLEPEDIATYYCQQYSNLPFTFGGGTKVEIK
notes: VH of the anti-PSMA antibody 5D3 (scFv HL, heavy then light); linker of the 5D3 scFv HL; VL of the anti-PSMA antibody 5D3; The construct has the BiP secretion signal at its N-terminus (vector pMT/BiP/V5-HisA); About 35 kDa; also called 5D3-CP33 fusion; 5D3-scFv-CP33; not shown: SA-strep II, C-terminal, kept
Regarding B1, the Kd turned out to be 3.4 nM.

For orientation: Kd means the equilibrium constant for the complex coming apart.
